From US20180117174A1 (GANYMED PHARMACEUTICALS, published 2018)

Experiments:
[1] = target: T1, human claudin 18 splice variant 2 (CLDN18.2) (human); assay: flow cytometry, HEK293 cells stably expressing CLDN18.2; APC-conjugated secondary antibody; binding assay 1
T1 construct: also called claudin 18 isotype 2

[2] = target: T1, human claudin 18 splice variant 2 …; assay: flow cytometry, HEK293 cells stably expressing CLDN18.2; ProteinL-FITC detection; binding assay 4
[3] = target: T1, human claudin 18 splice variant 2 …; assay: flow cytometry (Table 6); APC-conjugated secondary antibody; binding assay 1
Method: (§1) 100 μl of the cell suspension per well (correspond to 2×10⁵ cells/well) were transferred to a round bottom 96-well microtiter plate. […] The cells were centrifuged for 1 min at 1500 rpm and the supernatant was discarded. […] After incubation, 100 μl FACS buffer were added to each sample, the cells were centrifuged for 1 min at 1500 rpm and the supernatant was discarded. The washing step with FACS buffer was repeated twice. Finally, the cells were resuspended in 100 μl FACS buffer and binding was determined using a BD FACS Array Bioanalyzer.
(§2) Antibodies marked with the same number (1 or 2) were tested in the same binding assay.

[4] = target: T1, human claudin 18 splice variant 2 …; assay: flow cytometry on BxPC-3~CLDN18.2 cells, second assay
[5] = target: T1, human claudin 18 splice variant 2 …; assay: flow cytometry on NUGC-4 10cF7-5 sort 3a cells (endogenous CLDN18.2), second assay
[6] = target: T1, human claudin 18 splice variant 2 …; assay: cell-based or functional assay
[7] = target: T1, human claudin 18 splice variant 2 …; assay: flow cytometry (Table 6); ProteinL-FITC detection; binding assay 2
Method: as §1, §2

[8] = target: T1, human claudin 18 splice variant 2 …; assay: flow cytometry on NCI-N87~CLDN18.2 cells, antibody up to 20 µg/ml
Method: as §1

[9] = target: T1, human claudin 18 splice variant 2 …; assay: flow cytometry, HEK293 cells stably expressing CLDN18.2; APC-conjugated secondary antibody; binding assay 3
Method: as §1

[10] = target: T1, human claudin 18 splice variant 2 …; assay: cell-based or functional assay; remark: listed apart in the source
[11] = target: T1, human claudin 18 splice variant 2 …; assay: flow cytometry on NUGC-4 10cE8 cells (endogenous CLDN18.2), second assay
[12] = target: T1, human claudin 18 splice variant 2 …; assay: cell-based or functional assay; remark: listed apart in the source
[13] = target: T1, human claudin 18 splice variant 2 …; assay: flow cytometry on BxPC-3~CLDN18.2 cells, antibody up to 20 µg/ml
Method: as §1

[14] = target: T1, human claudin 18 splice variant 2 …; assay: flow cytometry, HEK293 cells stably expressing CLDN18.2; APC-conjugated secondary antibody; binding assay 2
[15] = target: T1, human claudin 18 splice variant 2 …; assay: flow cytometry on HEK293~CLDN18.2 cells, antibody up to 20 µg/ml
Method: Binding was analyzed by flow cytometry at antibody concentrations up to 20 μg/ml. Data points (n=2 replicates) are depicted as mean±SD.
as §1
The binding specificity was analyzed by flow cytometry using HEK293 transfectants engineered to overexpress human CLDN18.2 or the highly homologous protein human CLDN18.1.

[16] = target: T1, human claudin 18 splice variant 2 …; assay: flow cytometry (Table 6); ProteinL-FITC detection; binding assay 2; normalized to IMAB362

B1: IMAB362 (antibody, V domains shown)
VH: QVQLQQPGAELVRPGASVKLSCKASGYTFTSYWINWVKQRPGQGLEWIGNIYPSDSYTNYNQKFKDKATLTVDKSSSTAYMQLSSPTSEDSAVYYCTRSWRGNSFDYWGQGTTLTVSS
VL: DIVMTQSPSSLTVTAGEKVTMSCKSSQSLLNSGNQKNYLTWYQQKPGQPPKLLIYWASTRESGVPDRFTGSGSGTDFTLTISSVQAEDLAVYYCQNDYSYPFTFGSGTKLEIKR
notes: Chimeric human IgG1 kappa; CDR1 at 45-52); also called chim mAb362; chim mAB362
- EC50 [1]: 0.52 µg/mL
- EC50 [2]: 1.24 µg/mL
- Max. binding [MFI] [2]: 5320 MFI
- EC50 [3]: 0.584 µg/mL
- Max. binding [MFI] [3]: 18500 MFI
- EC50 [4]: 0.113 µg/mL
- EC50 [5]: 2.38 µg/mL
- CDC EC50 [ng/ml], KATO-III FGF-BP#12 adM p3151#25 cells [6]: 19300 ng/mL
- CDC EC50 [ng/ml], NUGC-4 10cF7_5 sort3a p3151#10 cells [6]: 28000 ng/mL
- EC50 [7]: 1.24 µg/mL
- EC50 [8]: 0.31 µg/mL
- EC50 [9]: 0.652 µg/mL
- Max. binding [MFI] [9]: 7950 MFI
- Cell viability EC50 [ng/ml], Fab-ZAP endocytosis assay on HEK293~CLDN18.2 cells [10]: 11 ng/mL
- Cell viability EC50 [ng/ml], Fab-ZAP endocytosis assay on HEK293~CLDN18.2 cells (second assay) [10]: 13 ng/mL
- EC50 [11]: 3.67 µg/mL
- ADCC EC50 [ng/ml], NUGC-4 10cF7_5 sort3a p3151#10 cells, PBMC of Donor 1 [12]: 1230 ng/mL
- ADCC EC50 [ng/ml], NUGC-4 10cF7_5 sort3a p3151#10 cells, PBMC of Donor 2 [12]: 142 ng/mL
- EC50 [13]: 0.104 µg/mL
- EC50 [14]: 0.584 µg/mL
- EC50 [15]: 1.12 µg/mL

B2: chim mAB294 (antibody, V domains shown)
VH: QIQLVQSGPELKKPGETVKISCKASGYTFTNYGMNWVKQAPGKGLKWMGWINTNTGEPTYAEEFKGRFAFSLETSASTAYLQINNLKNEDTATYFCARLGFGNAMDYWGQGTSVTVSS
VL: DIVMTQSPSSLTVTAGEKVTMSCKSSQSLLNSGNQKNYLTWYQQKPGQPPKLLIYWASTRESGVPDRFTGSGSGTDFTLTISSVQAEDLAVYYCQNDYSYPLTFGAGTKLELKR
- EC50 [7]: 5.7 µg/mL
- EC50 normalized [%] [16]: 459%
- Cell viability EC50 [%] normalized to IMAB362, Fab-ZAP endocytosis assay [10]: 91%
- Cell viability EC50 [ng/ml], Fab-ZAP endocytosis assay on HEK293~CLDN18.2 cells [10]: 10 ng/mL
- Max. viability reduction normalized [%], Fab-ZAP endocytosis assay [10]: 86%
